{"source": "paper PMC5269733", "about": "“RNA helicase DDX3 maintains lipid homeostasis through upregulation of the microsomal triglyceride transfer protein by interacting with HNF4 and SHP” (Scientific Reports, 2017)", "target": "T1, HA-tagged HNF4 (hepatocyte nuclear factor 4) (UniProt P41235 1-474)", "T1 sequence (looked up)": "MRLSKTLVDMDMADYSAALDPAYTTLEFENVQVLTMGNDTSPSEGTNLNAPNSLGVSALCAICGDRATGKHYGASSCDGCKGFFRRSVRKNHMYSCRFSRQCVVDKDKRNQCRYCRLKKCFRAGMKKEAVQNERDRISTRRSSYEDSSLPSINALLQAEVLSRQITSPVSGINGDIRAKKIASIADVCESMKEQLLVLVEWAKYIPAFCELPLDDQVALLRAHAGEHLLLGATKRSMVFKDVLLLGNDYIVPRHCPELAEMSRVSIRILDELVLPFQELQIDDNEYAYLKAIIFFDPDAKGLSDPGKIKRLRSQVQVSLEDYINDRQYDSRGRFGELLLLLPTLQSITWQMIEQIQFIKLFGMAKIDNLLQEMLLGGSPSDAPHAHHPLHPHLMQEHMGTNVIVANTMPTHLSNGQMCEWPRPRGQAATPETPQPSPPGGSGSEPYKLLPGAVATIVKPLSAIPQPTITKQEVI", "test": "cell-based or functional assay", "data": [{"binder": "HA-tagged DDX3 (natural protein, UniProt O00571 1-662, looked up) MSHVAVENALGLDQQFAGLDLNSSDNQSGGSTASKGRYIPPHLRNREATKGFYDKDSSGWSSSKDKDAYSSFGSRSDSRGKSSFFSDRGSGSRGRFDDRGRSDYDGIGSRGDRSGFGKFERGGNSRWCDKSDEDDWSKPLPPSERLEQELFSGGNTGINFEKYDDIPVEATGNNCPPHIESFSDVEMGEIIMGNIELTRYTRPTPVQKHAIPIIKEKRDLMACAQTGSGKTAAFLLPILSQIYSDGPGEALRAMKENGRYGRRKQYPISLVLAPTRELAVQIYEEARKFSYRSRVRPCVVYGGADIGQQIRDLERGCHLLVATPGRLVDMMERGKIGLDFCKYLVLDEADRMLDMGFEPQIRRIVEQDTMPPKGVRHTMMFSATFPKEIQMLARDFLDEYIFLAVGRVGSTSENITQKVVWVEESDKRSFLLDLLNATGKDSLTLVFVETKKGADSLEDFLYHEGYACTSIHGDRSQRDREEALHQFRSGKSPILVATAVAARGLDISNVKHVINFDLPSDIEEYVHRIGRTGRVGNLGLATSFFNERNINITKDLLDLLVEAKQEVPSWLENMAYEHHYKGSSRGRSKSSRFSGGFGARDYRQSSGASSSSFSSSRASSSRSGGGGHGSSRGFGGGGYGGFYNSDGYGGNYNSQGVDWWGN", "values": [{"measurement": "luciferase activity of pGL2/MTP-Luc(-611/+87) in HuH7 cells, HA-HNF4 with increasing HA-DDX3 against HA-HNF4 alone (2.4- to 8.9-fold, DDX3 dose-dependent)", "value": 8.9, "unit": "fold"}]}]}
